Results: patent US20140088019A1
Bridges are numbered along the chain shown (N, C = ends). Where no end group is shown, it is not given here.

Biological target: recombinant human angiopoietin-2 (human) (UniProt O15123)
Experiment: direct ELISA, rhAng2 coated on microplate wells, detection by HRP-anti-His tag antibody, OD450

Sequence of UniProt O15123 (O15123 19-496 limits assumed): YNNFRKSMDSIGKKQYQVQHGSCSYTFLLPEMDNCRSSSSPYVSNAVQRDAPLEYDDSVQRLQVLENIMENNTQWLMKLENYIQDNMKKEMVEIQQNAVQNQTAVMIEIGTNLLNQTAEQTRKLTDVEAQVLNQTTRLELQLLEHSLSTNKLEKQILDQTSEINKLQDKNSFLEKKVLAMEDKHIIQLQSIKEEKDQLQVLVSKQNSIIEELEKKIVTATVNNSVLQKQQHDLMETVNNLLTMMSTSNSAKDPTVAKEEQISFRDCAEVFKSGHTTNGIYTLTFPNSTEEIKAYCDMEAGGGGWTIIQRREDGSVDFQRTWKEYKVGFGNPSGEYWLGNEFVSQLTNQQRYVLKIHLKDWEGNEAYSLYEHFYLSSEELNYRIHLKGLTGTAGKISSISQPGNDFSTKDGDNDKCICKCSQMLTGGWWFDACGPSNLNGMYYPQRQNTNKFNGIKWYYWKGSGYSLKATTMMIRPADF

B1: Construct 12: ELP-MRD fusion protein with a constrained rhAng2-targeting peptide (ANGd) sandwiched between ELP repeat modules (designed binder, not shown: small tags and cut ends)
chain: LWDDCYSFPNPPHCYNSP
modifications: disulfide 5-14 (inferred); not fully specified (N-terminus, C-terminus); also: peptide sandwiched between ELP repeat modules, ELP composition not given here
EC50 (read off the curve): 8 nM
